Four molecules from publication PMC10415149, “The role of catalytic and regulatory domains of human PrimPol in DNA binding and synthesis” can be followed below.

Series [1] addresses T1, PrimPol1-475 (RBM deleted) (Homo sapiens, UniProt Q96LW4 1-475).
T1 sequence: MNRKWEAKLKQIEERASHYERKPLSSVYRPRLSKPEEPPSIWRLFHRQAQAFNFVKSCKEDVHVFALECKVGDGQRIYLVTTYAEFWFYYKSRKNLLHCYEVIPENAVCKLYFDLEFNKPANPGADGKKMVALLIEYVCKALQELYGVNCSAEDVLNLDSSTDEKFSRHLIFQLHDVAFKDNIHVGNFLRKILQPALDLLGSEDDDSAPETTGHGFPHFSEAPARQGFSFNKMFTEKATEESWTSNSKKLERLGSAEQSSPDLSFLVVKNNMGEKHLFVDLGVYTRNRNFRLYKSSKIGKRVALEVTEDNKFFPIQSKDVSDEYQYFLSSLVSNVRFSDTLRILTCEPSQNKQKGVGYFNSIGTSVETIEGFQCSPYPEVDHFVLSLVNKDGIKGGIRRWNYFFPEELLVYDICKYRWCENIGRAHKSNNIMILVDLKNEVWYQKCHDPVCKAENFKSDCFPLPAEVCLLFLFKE
Kind of series: EMSA; 1 mM Mn2+; EMSA: 40 mM HEPES pH 7.0, 50 mM KCl, 1 mM DTT, 5% glycerol, 0.1 mg/ml BSA, 1 mM MnCl2, 300 nM DNA, 24 C 20 min then ice (RPA assays: 50 nM DNA, 25 nM RPA, 8 C); 5% native PAGE, 0.5x Tris-glycine pH 8.3, 4 C. Conditions: protein: recombinant; tags: N-terminal SUMO-HIS10; label: Cy5 at 5' of template; template 5' overhang 1 nt, 3' overhang 11 nt.

Series [2] deals with T2, PrimPol WT (Homo sapiens, UniProt Q96LW4 1-560).
T2 sequence: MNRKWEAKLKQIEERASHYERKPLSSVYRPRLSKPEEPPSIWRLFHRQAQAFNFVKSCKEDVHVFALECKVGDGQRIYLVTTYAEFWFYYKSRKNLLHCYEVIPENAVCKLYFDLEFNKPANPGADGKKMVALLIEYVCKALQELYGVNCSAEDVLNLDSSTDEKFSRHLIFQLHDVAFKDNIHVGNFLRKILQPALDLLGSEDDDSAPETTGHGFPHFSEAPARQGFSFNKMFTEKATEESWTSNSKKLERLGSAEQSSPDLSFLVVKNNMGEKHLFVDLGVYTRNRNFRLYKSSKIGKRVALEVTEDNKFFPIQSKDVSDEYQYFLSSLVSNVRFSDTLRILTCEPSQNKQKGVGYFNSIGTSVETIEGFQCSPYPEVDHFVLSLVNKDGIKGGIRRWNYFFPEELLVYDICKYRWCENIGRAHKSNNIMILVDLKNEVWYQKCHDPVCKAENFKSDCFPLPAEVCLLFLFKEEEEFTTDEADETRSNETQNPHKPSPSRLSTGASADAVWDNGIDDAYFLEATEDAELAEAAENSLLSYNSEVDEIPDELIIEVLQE
The series is described as above. The following applies: protein: recombinant; tags: N-terminal SUMO-HIS10; label: Cy5 at 5' of template; template 5' overhang 1 nt, 3' overhang 11 nt.

The target of series [3] is T1, PrimPol1-475 (RBM deleted). Kind of series: EMSA; 1 mM Mn2+, 1 mM ATP, 200 uM dNTPs, 8 C; EMSA: 40 mM HEPES pH 7.0, 50 mM KCl, 1 mM DTT, 5% glycerol, 0.1 mg/ml BSA, 1 mM MnCl2, 300 nM DNA, 24 C 20 min then ice (RPA assays: 50 nM DNA, 25 nM RPA, 8 C); 5% native PAGE, 0.5x Tris-glycine pH 8.3, 4 C. The following applies: protein: recombinant; tags: N-terminal SUMO-HIS10; label: 32P.

Series [4] addresses T2, PrimPol WT. Described as above. The following applies: protein: recombinant; tags: N-terminal SUMO-HIS10; label: 32P.
In another series the target is PrimPol WT;RPA (Homo sapiens;Homo sapiens, UniProt Q96LW4;P27694;P15927;P35244 1-560;1-616;1-270;1-121, |). Kind of series: EMSA; PrimPol added to preformed RPA:DNA; 1 mM Mn2+, ATP, dNTPs, 8 C; EMSA: 40 mM HEPES pH 7.0, 50 mM KCl, 1 mM DTT, 5% glycerol, 0.1 mg/ml BSA, 1 mM MnCl2, 300 nM DNA, 24 C 20 min then ice (RPA assays: 50 nM DNA, 25 nM RPA, 8 C); 5% native PAGE, 0.5x Tris-glycine pH 8.3, 4 C. Conditions: protein: recombinant;recombinant; tags: N-terminal SUMO-HIS10;; copies: 1;1;1;1; label: 32P.
PrimPol WT;RPA, sequence (P27694 whole entry, chain 2 of 3): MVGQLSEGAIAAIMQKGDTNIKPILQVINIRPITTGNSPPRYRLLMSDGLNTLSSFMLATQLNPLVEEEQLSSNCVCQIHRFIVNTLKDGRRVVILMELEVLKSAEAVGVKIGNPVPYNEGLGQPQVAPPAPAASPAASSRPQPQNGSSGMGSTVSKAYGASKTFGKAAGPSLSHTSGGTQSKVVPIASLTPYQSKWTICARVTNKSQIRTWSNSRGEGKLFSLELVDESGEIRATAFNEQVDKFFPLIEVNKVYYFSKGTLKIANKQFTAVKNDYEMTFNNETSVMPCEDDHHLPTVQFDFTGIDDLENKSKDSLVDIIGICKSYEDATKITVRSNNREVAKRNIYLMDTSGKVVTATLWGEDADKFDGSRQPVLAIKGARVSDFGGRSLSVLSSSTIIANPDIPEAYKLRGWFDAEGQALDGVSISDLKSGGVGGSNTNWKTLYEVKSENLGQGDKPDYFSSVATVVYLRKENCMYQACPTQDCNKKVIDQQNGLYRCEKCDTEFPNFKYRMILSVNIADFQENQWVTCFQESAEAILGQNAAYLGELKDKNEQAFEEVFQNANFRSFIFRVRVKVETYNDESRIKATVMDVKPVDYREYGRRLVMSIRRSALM
PrimPol WT;RPA, sequence (P15927 whole entry, chain 3 of 3): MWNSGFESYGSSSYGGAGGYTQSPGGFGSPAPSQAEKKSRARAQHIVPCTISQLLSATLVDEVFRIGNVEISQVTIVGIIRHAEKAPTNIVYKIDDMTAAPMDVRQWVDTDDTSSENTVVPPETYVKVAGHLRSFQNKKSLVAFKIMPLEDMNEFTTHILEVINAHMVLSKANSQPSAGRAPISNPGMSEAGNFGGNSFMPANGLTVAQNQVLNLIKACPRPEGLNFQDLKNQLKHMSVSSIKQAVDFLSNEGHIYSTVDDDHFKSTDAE
PrimPol WT;RPA, sequence (P35244 whole entry, chain 4 of 3): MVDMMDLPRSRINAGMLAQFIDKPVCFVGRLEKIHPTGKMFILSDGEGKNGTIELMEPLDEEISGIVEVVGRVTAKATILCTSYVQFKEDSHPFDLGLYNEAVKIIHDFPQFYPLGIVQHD

The target of a further series is T3, PrimPol363-560 (CTD) (Homo sapiens, UniProt Q96LW4 363-560).
T3 sequence: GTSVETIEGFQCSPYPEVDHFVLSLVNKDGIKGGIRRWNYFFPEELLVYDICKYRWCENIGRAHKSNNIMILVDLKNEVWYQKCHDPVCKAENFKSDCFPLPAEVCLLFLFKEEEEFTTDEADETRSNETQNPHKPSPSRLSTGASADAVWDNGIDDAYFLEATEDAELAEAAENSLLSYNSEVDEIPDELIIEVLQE
Kind of series: EMSA; 1 mM Mn2+, 1-3 uM protein; EMSA: 40 mM HEPES pH 7.0, 50 mM KCl, 1 mM DTT, 5% glycerol, 0.1 mg/ml BSA, 1 mM MnCl2, 300 nM DNA, 24 C 20 min then ice (RPA assays: 50 nM DNA, 25 nM RPA, 8 C); 5% native PAGE, 0.5x Tris-glycine pH 8.3, 4 C. Conditions: protein: recombinant; tags: N-terminal SUMO-HIS10; label: 5' Cy5.

A further series has as its target T4, PrimPol1-363 (NTD) (Homo sapiens, UniProt Q96LW4 1-363).
T4 sequence: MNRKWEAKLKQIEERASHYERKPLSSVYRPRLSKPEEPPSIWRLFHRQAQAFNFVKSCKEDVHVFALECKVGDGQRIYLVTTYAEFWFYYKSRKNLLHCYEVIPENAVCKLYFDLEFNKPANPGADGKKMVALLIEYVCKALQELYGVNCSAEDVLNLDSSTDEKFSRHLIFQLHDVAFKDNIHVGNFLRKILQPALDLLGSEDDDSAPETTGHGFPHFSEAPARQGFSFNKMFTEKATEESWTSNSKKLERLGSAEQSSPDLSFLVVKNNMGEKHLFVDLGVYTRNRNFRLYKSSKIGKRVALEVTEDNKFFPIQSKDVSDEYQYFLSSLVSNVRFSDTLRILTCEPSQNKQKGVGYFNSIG
Described as above. The following applies: protein: recombinant; tags: N-terminal SUMO-HIS10; label: 5' Cy5.

For series [5], the target named is T5, PrimPol1-363 (NTD);PrimPol363-560 (CTD) (Homo sapiens;Homo sapiens, UniProt Q96LW4;Q96LW4 1-363;363-560, |).
T5 sequence 1: T4 sequence
T5 sequence 2: T3 sequence
Kind of series: EMSA; 1 mM Mn2+; separate NTD and CTD mixed; EMSA: 40 mM HEPES pH 7.0, 50 mM KCl, 1 mM DTT, 5% glycerol, 0.1 mg/ml BSA, 1 mM MnCl2, 300 nM DNA, 24 C 20 min then ice (RPA assays: 50 nM DNA, 25 nM RPA, 8 C); 5% native PAGE, 0.5x Tris-glycine pH 8.3, 4 C. Conditions: protein: recombinant;recombinant, tags: N-terminal SUMO-HIS10;N-terminal SUMO-HIS10, copies: 1;1.

B1: p-p-p-12/Cy5-Acctg24 (mixed)
DNA 1: AAAAAAAAAACCTGAAAAAAAAAA
DNA 2: AGGTTTTTTTTT
modifications: primer 5'-triphosphate; primer nt 1 is ribo-A, rest DNA
B1: the equilibrium dissociation constant (Kd) in series [1] came to 90 ± 10 nM; in the series with PrimPol WT [2], 490 ± 130 nM.

B2: Acctg55 (ssDNA)
DNA: AAAAAAAAAAAAAAAAAAAAAAAAAAAAAAAAAAAAAAAAACCTGAAAAAAAAAA
B2: the binding result (in series [3]; with PrimPol WT [4]; with PrimPol WT;RPA) was “binds” in each case.

In the case of AAAAAAAAAACCTGAAAAAAAAAA (ssDNA) [Cy5-Acctg24], the binding result is recorded as “no binding” in the series with PrimPol363-560 (CTD), “binds” with PrimPol1-363 (NTD) and “no binding” in series [5] (label: 5' Cy5).

B3: Template-55/Primer-18 (dsDNA)
DNA 1: GACTACATTTCATCTGGCTTGGGCTTCATCGTTGTCGCAGACCTGGTGGATACCG
DNA 2: CGGTATCCACCAGGTCTG
B3: in series [5] (label: 5' 32P on Primer-18, template 5' overhang 37 nt), the binding result is on record as “binds”.
